Results reported in patent publication US20040072266A1, “Method of modifying cell motility via compounds and polypeptides that interact with a Wnt pathway” (priority 2002, published 2004).

B1: Wnt1: Wnt polypeptide supplied as media pre-conditioned by 293T cells expressing Wnt1 (mouse Wnt 1 per b63) (protein, UniProt P04426 28-370, looked up)
Proto-oncogene Wnt-1: ANSSGRWWGIVNIASSTNLLTDSKSLQLVLEPSLQLLSRKQRRLIRQNPGILHSVSGGLQSAVRECKWQFRNRRWNCPTAPGPHLFGKIVNRGCRETAFIFAITSAGVTHSVARSCSEGSIESCTCDYRRRGPGGPDWHWGGCSDNIDFGRLFGREFVDSGEKGRDLRFLMNLHNNEAGRTTVFSEMRQECKCHGMSGSCTVRTCWMRLPTLRAVGDVLRDRFDGASRVLYGNRGSNRASRAELLRLEPEDPAHKPPSPHDLVYFEKSPNFCTYSGRLGTAGTAGRACNSSSPALDGCELLCCGRGHRTRTQRVTERCNCTFHWCCHVSCRNCTHTRVLHECL
modifications: conditioned medium from 293T cells
B2: Wnt5a: Wnt polypeptide supplied as media pre-conditioned by 293T cells expressing Wnt5a (mouse Wnt 5A per b63) (protein, UniProt P22725 62-380, looked up)
Protein Wnt-5a: IIGAQPLCSQLAGLSQGQKKLCHLYQDHMQYIGEGAKTGIKECQYQFRHRRWNCSTVDNTSVFGRVMQIGSRETAFTYAVSAAGVVNAMSRACREGELSTCGCSRAARPKDLPRDWLWGGCGDNIDYGYRFAKEFVDARERERIHAKGSYESARILMNLHNNEAGRRTVYNLADVACKCHGVSGSCSLKTCWLQLADFRKVGDALKEKYDSAAAMRLNSRGKLVQVNSRFNSPTTQDLVYIDPSPDYCVRNESTGSLGTQGRLCNKTSEGMDGCELMCCGRGYDQFKTVQTERCHCKFHWCCYVKCKKCTEIVDQFVCK
modifications: conditioned medium from 293T cells

Tested on: NIH3T3 cells
Assay: Wnt conditioned media treatment of NIH3T3 cells, phalloidin actin staining, protrusion/filopodia count
Type: cell-based, mouse
Conditions: NIH3T3 cells on fibronectin treated cover slips, 15 minutes in conditioned media, Alexa568 phalloidin staining
Method: FIG. 1: Wnt treatment increases the protrusive activity of NIH3T3 cells. NIH3T3 cells were plated at low density on fibronectin treated cover slips. After being allowed to re-attach for 12 hours, cells were placed into media that was pre-conditioned either by control 293T cells (A), 293T cells expressing Wnt1 (B) or 293T cells expressing Wnt5a (C and D). After 15 minutes in conditioned media, cells were fixed and stained with Alexa568 conjugated phalloidin to label the actin cyto-skeleton. Wnt treated cells contained higher numbers of actin based protrusions relative to control. These included filopodia (arrows in B and C) as well as membrane ruffles (arrows in D). E. The number of filopodia per cell was counted for NIH3T3 cells treated as described above. […] Columns represent the average number of filopodia per cell. N=50, 80, 76 cells for control, Wnt1 and Wnt5a, respectively. Error bars represent the standard error of the mean for each group shown.
We can use Wnt conditioned media as a source of Wnt polypeptides and fragments of them in testing the ability of a cell to modify its cell motility characteristics. […]
In FIG. 1, we show the […] after the Wnt treatment. […] The degree of motility can be measured through the number of filopodia, for example, or through assyas that measure the levels or increases in cytoskeletal proteins. […]

Molecule | number of filopodia per cell relative to control
B1 | significant increase
B2 | significant increase
